Results as given in the supplement of paper PMC9170038.

Test system: K4 kissing-loop RNA reporter
Assay: apparent KD of K4 kissing-loop reporter; higher = weaker reporter binding
Conditions: Eterna round: R107
Method: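 RNA-MaP round R107: designed RNA switches with theophylline, tryptophan, arginine or FMN aptamers are transcribed on-chip within common flanks. They are titrated with a labelled K4 kissing-loop RNA reporter in RNA-MaP buffer (100 mM Tris pH 7.5, 80 mM KCl, 4 mM MgCl2), without ligand or with the indicated ligand. Median apparent KD per design.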

[1] = input ligand: theophylline 20 uM
[2] = input ligand: tryptophan 2.4 mM
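Also: bound reporter read as fluorescence of individual clusters on recovered sequencing chips by microscopy, with normalized cluster intensities fitted with a binding model.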

Row | Sequence | apparent KD of K4 kissing-loop reporter (input ligand: FMN 200 uM) [nM] | apparent KD of K4 kissing-loop reporter (input ligand: arginine 13.2 mM) [nM] | apparent KD of K4 kissing-loop reporter (input ligand: none) [nM] | apparent KD of K4 kissing-loop reporter [1] [nM] | apparent KD of K4 kissing-loop reporter [2] [nM]
1 | GGUACAGCGGAAGGAUAUCUGUCAUGGACGAUCGUAGCUUGAGCUCCCUGAGUGAUGUUUAGGAUGAGAGAAGGUCCACUCGUAU [theeternabot_exclusion_KL_FMN_B_2] | 673 | 358 | 591 | 626 | 450
2 | GGUAGCAUGGCGGCCGCCACUAAUACUUCGUAGCCUGUAGCCGGCUUCGUAGAGUGAUGUUCUAUUAGGACCGGGCCAUGCUACC | 361 | 520 | 450 | 526 | 493
3 | GGUAGCAUGGCGGCCGCCACUAGAUCAGUGAUGUUGAUCCCGCCGUCUUACGGCGAGUCAGAGGCUAGGACCGGGCCAUGCUACC | 601 | 318 | 490 | 590 | 963
4 | GGUAGCAUGGCGGCCGCCACUAUAAAGAAUCCAAAGGAUUCUAGGUAGUGAUGUUACCAUAGCUAUAGGACCGGGCCAUGCUACC | 156 | 120 | 174 | 121 | 56.5
5 | GGUAGCAUGGCGGCCGCCACUGUUCGUGUUGCUAGCAGAUUCCAGUGAUGUUGGAAGCCUAGGUACAGGACCGGGCCAUGCUACC | 105 | 115 | 131 | 102 | 103
6 | GGUAGCAUGGCGGCCGCCACUUCAAUUGGAGUGAUGUUCCAAGGCAUCGCGAAAGCGAUGCCAGGAAGGACCGGGCCAUGCUACC | 271 | 224 | 306 | 222 | 112
7 | GGUAGCAUGGCGGCCGCCACUUCGAAUAAGUGAUGUUUAUUUGACUGAGCACCCUAUGCCAUGUGAAGGACCGGGCCAUGCUACC | 147 | 138 | 157 | 208 | 200
8 | GGUAUCCAGUACCAUUGCGUUAAAACAGAAGGAGCGAGUAUGGACUCAGGUAGGUCGCUGUUUAUAGUCGAGUGAUGUUCGAAUC [Same State Arginine A GF 15] | 237 | 280 | 281 | 316 | 222
9 | GGUCCGGGCUCGGCCGCCACUCCCUCGUACCGCAAGGUAUGAUACCGAGUGAUGUUCGGUUGGAGGAGGACCGGGAGCCCGGACC [#2 Exclusion - Tryptophan B Attempt #9 (HarryS)] | 112 | 110 | 132 | 124 | 100
10 | GGUCGGAGUGAUGUUCCGAGCUUCAGUCAUCGAGGACCGGUACGGCCGCCACUCGUCUACUAUGACGUAUCACCCUCCACGUGUU [theeternabot_sameState_KL_Trp_A_33] | 150 | 142 | 146 | 145 | 125
11 | GGUGACAACCAGGAGUGAUGUAUAGAAUAGCGAGGACCGGUACGGCCGCCACUCGUGAAGAGAAAGGAGUGAUGUUCCGUAAUGG [Kazoo C3] | 129 | 126 | 165 | 74.2 | 62.8
12 | GGUGACGGCCAGGAGUGAUGUAUAGAAUAGCGAGGACCGGUACGGCCGCCACUCGUGAAGAAAAGGGAGUGAUGUUCCGUAAUGU [Kazoo] | 87.8 | 122 | 75.3 | 126 | 49.5
13 | GGUGCGGGCUCGGCCGCCACUCCCUCCUGCCGUAAGGUGGGAUACCGAGUGAUGUUCGGUUGGAGGAGGACCGGGAGCCCGUGCC [#2 Exclusion - Tryptophan B Attempt #16 (HarryS)] | 131 | 102 | 114 | 110 | 125
14 | GGUGCUGGCCAGUGAUGUUGGCGAAUACUGAAGGAUAUGAUAGGCGUCAGAAGGUCAAGAGUAAUAUCUAGAAUGAAUAGUGAUA [theeternabot_sameState_KL_FMN_A_38] | 296 | 289 | 329 | 439 | 285
15 | GGUGCUGUCUGUGCCGCCCUCCUCGUCCCUCGAGGACCGGUACGGCCGCCACUCGAGUGAUGUUCGGGUAGCGAUCCCUGCUAGC [Bdazzled - #18 Exc. Tryptophan A] | 275 | 194 | 246 | 229 | 256
16 | GGUGUUGUUUGUGCCGCCUUCCUCGUUCCUCGAGGACCGGUACGGCCGCCACUCGAGUGAUGUUUGGGUAGCGAUCCCUGUUAGU [Bdazzled - #11 Exc. Tryptophan A] | 764 | 573 | 892 | 638 | 778
17 | GGUGUUGUUUGUGCCGUCUUCCUCGUUCCUCGAGGACCGGUACGGCCGCCACUCGAGUGAUGUUUGGGUAGCGAUCCCUGUUAGU [Bdazzled - #10 Exc. Tryptophan A] | 695 | 541 | 647 | 602 | 582
18 | GGUGUUGUUUGUGCCGUUUUCCUCGUUCCUCGAGGACCGGUACGGCCGCCACUCGAGUGAUGUUUGGGUAGCGAUCCCUGUUAGU [Bdazzled - #9 Exc. Tryptophan A] | 868 | 646 | 871 | 802 | 766
